Marks after values point to notes of the source that are not given here.
What was measured:
[1] = Activity of crude culture supernatants from bioreactor; format: biochemical; conditions: pNP-dodecanoate
[2] = Stability in the presence of hydrogen peroxide; format: physicochemical
Protocol: (§1) Esterase activity was determined by monitoring the formation of para-nitrophenol (pNP) at 410 nm from various pNP-esters using a Beckman UV spectrophotometer (model DU 640). Substrates were completely dissolved in 2-propanol (8 mM) and were then added to 50 mM Tris/HCl buffer pH 8.0 to give a final substrate concentration of 0.8 mM. The reaction (1 mL) was started by adding an appropriate amount of enzyme. One enzyme unit (U) was defined as the amount of enzyme that produced 1 μmol of product (pNP) per min; specific activity was expressed as U/mg protein. A molar extinction coefficient of 15 mM^−1 cm^−1 was used for the calculation.
Purified cutinases were incubated at room temperature in the presence of 0, 30, 100, 300, 1500, and 3000 ppm of hydrogen peroxide. Residual enzyme activity was assayed (see Example 20.1) after 1, 2, 3, and 7 days of incubation.

[3] = Circular dichroism spectroscopy, melting temperature and refolding; format: physicochemical
Protocol: CD spectra were recorded using a Jasco™ J-815 spectrometer operating with the Spectra™ Manager software. Temperature was controlled using a Jasco™ PFD-452S peltier unit. Previously purified protein solutions were adjusted to 0.15 mg/mL (if quantities allowed for) and CD spectra were recorded between 190 and 250 nm using a Quartz cuvette (ID=0.1 cm). Blanks containing buffer only were prepared and used as baseline. Temperature dependent protein unfolding was monitored at 222 nm with thermo profiles ranging from 20 up to 90° C. (2° C. min-1). Samples were kept for 5 min at the respective maximum temperature and protein refolding was monitored using the same conditions as above reversing the thermo profiles. Thermodynamic parameters (Tm, ΔH, ΔS, ΔG) for the folding/unfolding process, if applicable, were calculated using the Spectra™ Manager software.

[4] = Specific activity of purified enzymes (standard esterase assay); format: biochemical
Protocol: In summary, using different techniques for enzyme purification, pure enzyme preparations were obtained and tested for their activity towards a standard esterase substrate, pNP-palmitate. Enzymatic activities of the purified variants are summarized below:
as §1

[5] = Enzymatic activity in the presence of organic solvents; format: biochemical; conditions: buffer only = 100%
Protocol: Enzyme activity in various organic solvents was studied over a concentration range of 1-30% at room temperature. pNP-palmitate was completely dissolved in 2-propanol (8 mM) and then added to 50 mM Tris/HCl buffer pH 8.0 containing up to 30% organic solvent to give a final substrate concentration of 0.8 mM. The reaction was started by addition of enzyme and the formation of pNP was assayed as described above in Example 20.1.

Temperature optimum = format: biochemical; conditions: for Relative activity at temperature: highest activity set to 100%
Protocol: For estimation of the temperature optimum, buffer containing pNP-palmitate (see esterase assay in Example 20.1) was pre-incubated to reach the desired temperature, enzyme was then added, and the formation of pNP was assayed. For this experiment, Tris/HCl buffer was replaced with sodium phosphate buffer (50 mM, pH 8.0) to avoid a pH shift at the different temperatures.

pH dependence of enzymes = format: biochemical; conditions: for Relative activity (%): highest activity = 100%
Protocol: The influence of different pH values (from 5.5 to 11) on the activities of the purified enzymes was examined in three buffer systems (sodium acetate, sodium phosphate, and Tris-HCl) at room temperature using pNP-palmitate (see esterase assay in Example 20.1) as a substrate at a final substrate concentration of 0.8 mM.

[6] = Enzyme substrate profiles, esterase assays; format: biochemical; conditions: highest activity towards a specific substrate set to 100%
Protocol: as §1

B1: KrCUT: mature Kineococcus radiotolerans cutinase, amino acids 34-294 of SEQ ID NO: 1; SEQ ID NO: 6 (protein)
chain: ATCSDVDVVFARGTGETPGLGVVGGPFVRSLTGELSDRTVTSHAVDYAASSSQASAGPGATAMSAHVREVAAACPSTRFVLGGYSQGATVTDIALGIRTGTTTGTPVPAELAGRVAAVVVFGNPLGLSGRTIATASSTYGPKSKDYCNSSDSVCGSAPKTGTGGHLSYASNGSTTDGARFAAGLVRAAGTPTTPTPTPTPTPVPTTCVRDSTRDHVAADRAVSLYGRAYARGSRDSLGATSSYNVVSLQQVEGGWRLVTAC
modifications: Kineococcus radiotolerans; (1)..(261) KrCUT (lacking residues 1-33 of ssKrCUT)
activity of crude culture supernatant [1]: 1.6 U/mL | Relative activity (%) after exposure to hydrogen peroxide ([2]; H2O2 30 ppm, Day 0): 100 ± 9% | Relative activity (%) after exposure to hydrogen peroxide ([2]; H2O2 30 ppm, Day 1): 90 ± 6% | Relative activity (%) after exposure to hydrogen peroxide ([2]; H2O2 30 ppm, Day 2): 75 ± 3% | Relative activity (%) after exposure to hydrogen peroxide ([2]; H2O2 30 ppm, Day 3): 75 ± 8% | Relative activity (%) after exposure to hydrogen peroxide ([2]; H2O2 30 ppm, Day 7): 76 ± 2% | Relative activity (%) after exposure to hydrogen peroxide ([2]; H2O2 100 ppm, Day 0): 104 ± 6% | Relative activity (%) after exposure to hydrogen peroxide ([2]; H2O2 100 ppm, Day 1): 91 ± 6% | Relative activity (%) after exposure to hydrogen peroxide ([2]; H2O2 100 ppm, Day 2): 88 ± 6% | Relative activity (%) after exposure to hydrogen peroxide ([2]; H2O2 100 ppm, Day 3): 76 ± 2% | Relative activity (%) after exposure to hydrogen peroxide ([2]; H2O2 100 ppm, Day 7): 66 ± 2% | Relative activity (%) after exposure to hydrogen peroxide ([2]; H2O2 300 ppm, Day 0): 102 ± 4% | Relative activity (%) after exposure to hydrogen peroxide ([2]; H2O2 300 ppm, Day 1): 87 ± 2% | Relative activity (%) after exposure to hydrogen peroxide ([2]; H2O2 300 ppm, Day 2): 74 ± 1% | Relative activity (%) after exposure to hydrogen peroxide ([2]; H2O2 300 ppm, Day 3): 63 ± 2% | Relative activity (%) after exposure to hydrogen peroxide ([2]; H2O2 300 ppm, Day 7): 49 ± 4% | Relative activity (%) after exposure to hydrogen peroxide ([2]; H2O2 1,500 ppm, Day 0): 102 ± 10% | Relative activity (%) after exposure to hydrogen peroxide ([2]; H2O2 1,500 ppm, Day 1): 80 ± 4% | Relative activity (%) after exposure to hydrogen peroxide ([2]; H2O2 1,500 ppm, Day 2): 67 ± 4% | Relative activity (%) after exposure to hydrogen peroxide ([2]; H2O2 1,500 ppm, Day 3): 44 ± 2% | Relative activity (%) after exposure to hydrogen peroxide ([2]; H2O2 1,500 ppm, Day 7): 11 ± 1% | Relative activity (%) after exposure to hydrogen peroxide ([2]; H2O2 3,000 ppm, Day 0): 98 ± 9% | Relative activity (%) after exposure to hydrogen peroxide ([2]; H2O2 3,000 ppm, Day 1): 60 ± 2% | Relative activity (%) after exposure to hydrogen peroxide ([2]; H2O2 3,000 ppm, Day 2): 33 ± 1% | Relative activity (%) after exposure to hydrogen peroxide ([2]; H2O2 3,000 ppm, Day 3): 20 ± 4% | Relative activity (%) after exposure to hydrogen peroxide ([2]; H2O2 3,000 ppm, Day 7): no activity was detected | refolding ([3]; CD at 222 nm): refolding to some extent | midpoint transition temperature of refolding ([3]; CD at 222 nm, high to low temperature): 42.7 °C | melting temperature (Tm) ([3]; CD at 222 nm, unfolding): 50.7 °C | Tm (° C.) ([3]; estimated using CD-spectroscopy): 51 ± 1 °C | Enzymatic activity of the purified variant ([4]; pNP-palmitate): 197 ± 3 U/mg | Spec. Act. (U/mg) ([4]; towards pNP-palmitate (standard assay)): 197 ± 3 U/mg | Relative enzymatic activity (%) ([5]; 2-Propanol 5% (v/v)): 55 ± 11% | Relative enzymatic activity (%) ([5]; 2-Propanol 10% (v/v)): 8% | Relative enzymatic activity (%) ([5]; Acetone 1% (v/v)): 71 ± 2% | Relative enzymatic activity (%) ([5]; Acetone 5% (v/v)): 47 ± 7% | Relative enzymatic activity (%) ([5]; Dimethyl sulfoxide (DMSO) 10% (v/v)): 106 ± 4% | Relative enzymatic activity (%) ([5]; Dimethyl sulfoxide (DMSO) 20% (v/v)): 14 ± 2% | Relative enzymatic activity (%) ([5]; Dimethyl sulfoxide (DMSO) 30% (v/v)): 2% | Relative enzymatic activity (%) ([5]; Dimethylformamide (DMF) 5% (v/v)): 55 ± 11% | Relative enzymatic activity (%) ([5]; Methanol 10% (v/v)): 91 ± 12% | Relative enzymatic activity (%) ([5]; Methanol 20% (v/v)): 8% | Temp. opt. (° C.) (Temperature optimum): 45 °C | Relative activity at temperature (Temperature optimum; 20 ° C.): 83 ± 5% | Relative activity at temperature (Temperature optimum; 25 ° C.): 84 ± 4% | Relative activity at temperature (Temperature optimum; 30 ° C.): 83 ± 4% | Relative activity at temperature (Temperature optimum; 35 ° C.): 84 ± 4% | Relative activity at temperature (Temperature optimum; 40 ° C.): 89 ± 6% | Relative activity at temperature (Temperature optimum; 45 ° C.): 100* % | Relative activity at temperature (Temperature optimum; 50 ° C.): 90 ± 4% | Relative activity at temperature (Temperature optimum; 55 ° C.): 38 ± 3% | Relative activity at temperature (Temperature optimum; 60 ° C.): 15 ± 5% | pH opt. (pH dependence of enzymes): 8.5 | Relative activity (%) (pH dependence of enzymes; pH 6.5, sodium phosphate buffer): 22 ± 1% | Relative activity (%) (pH dependence of enzymes; pH 7.0, sodium phosphate buffer): 53 ± 2% | Relative activity (%) (pH dependence of enzymes; pH 7.5, sodium phosphate buffer): 72 ± 4% | Relative activity (%) (pH dependence of enzymes; pH 8.0, Tris/HCl): 87 ± 6% | Relative activity (%) (pH dependence of enzymes; pH 8.5, Tris/HCl): 100* % | Relative activity (%) (pH dependence of enzymes; pH 9.0, Tris/HCl): 96 ± 4% | Relative activity (%) (pH dependence of enzymes; pH 9.5, Tris/HCl): 76 ± 7% | Relative activity (%) (pH dependence of enzymes; pH 10, Tris/HCl): 37 ± 5% | Relative activity, pNP-acetate (C2) [6]: 2% | Relative activity, pNP-butyrate (C4) [6]: 26 ± 2% | Relative activity, pNP-caprylate (C8) [6]: 25 ± 3% | Relative activity, pNP-decanoate (C10) [6]: 25 ± 3% | Relative activity, pNP-myristate (C14) [6]: 100* % | Relative activity, pNP-palmitate (C16) [6]: 98 ± 6%
